Results: the supplement of paper PMC10065799, “High-throughput profiling of sequence recognition by tyrosine kinases and SH2 domains using bacterial peptide display” (eLife, 2023)

What was measured:
[1] = system: AncSZ; assay: phosphorylation enrichment, bacterial display (enrichment ratio); higher = better substrate or ligand; peptides without Tyr show the background
[2] = target: EPHB1 (UniProt P54762); assay: as above
[3] = target: EPHB2 (UniProt P29323); assay: as above
[4] = target: FGFR1 (UniProt P11362); assay: as above
[5] = target: FGFR3 (UniProt P22607); assay: as above
[6] = system: Fer (mouse); assay: as above
[7] = target: Fes (UniProt P07332); assay: as above
[8] = target: Fyn (UniProt P06241); assay: as above
[9] = target: Hck (UniProt P08631); assay: as above
[10] = target: Jak2 (UniProt O60674); assay: as above
[11] = target: MERTK (UniProt Q12866); assay: as above
[12] = system: c-Abl (mouse); assay: as above
[13] = system: c-Src; assay: as above
[14] = target: Grb2 SH2 (UniProt P62993); assay: SH2 binding enrichment of the phosphorylated peptide, bacterial display (enrichment ratio); higher = better substrate or ligand; peptides without Tyr show the background
[15] = target: SHP2-C SH2; assay: as above
[16] = target: c-Src SH2; assay: as above
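For SH2 binding enrichment of the phosphorylated peptide, bacterial display in this document: peptide library displayed on the E. coli surface as eCPX fusions, selected cells deep-sequenced, score is each peptide's frequency after selection divided by its frequency in the input.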
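For phosphorylation enrichment, bacterial display in this document: 11-residue human phosphosite peptides and single-mutation variants displayed on the E. coli surface, counted by deep sequencing, each peptide's frequency after selection divided by its frequency in the unselected input library; frequency after pTyr selection over input frequency; kinase dosed for 20-30% of maximal phosphorylation in three min.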

Sequence of FGFR3 (P22607 whole entry, looked up): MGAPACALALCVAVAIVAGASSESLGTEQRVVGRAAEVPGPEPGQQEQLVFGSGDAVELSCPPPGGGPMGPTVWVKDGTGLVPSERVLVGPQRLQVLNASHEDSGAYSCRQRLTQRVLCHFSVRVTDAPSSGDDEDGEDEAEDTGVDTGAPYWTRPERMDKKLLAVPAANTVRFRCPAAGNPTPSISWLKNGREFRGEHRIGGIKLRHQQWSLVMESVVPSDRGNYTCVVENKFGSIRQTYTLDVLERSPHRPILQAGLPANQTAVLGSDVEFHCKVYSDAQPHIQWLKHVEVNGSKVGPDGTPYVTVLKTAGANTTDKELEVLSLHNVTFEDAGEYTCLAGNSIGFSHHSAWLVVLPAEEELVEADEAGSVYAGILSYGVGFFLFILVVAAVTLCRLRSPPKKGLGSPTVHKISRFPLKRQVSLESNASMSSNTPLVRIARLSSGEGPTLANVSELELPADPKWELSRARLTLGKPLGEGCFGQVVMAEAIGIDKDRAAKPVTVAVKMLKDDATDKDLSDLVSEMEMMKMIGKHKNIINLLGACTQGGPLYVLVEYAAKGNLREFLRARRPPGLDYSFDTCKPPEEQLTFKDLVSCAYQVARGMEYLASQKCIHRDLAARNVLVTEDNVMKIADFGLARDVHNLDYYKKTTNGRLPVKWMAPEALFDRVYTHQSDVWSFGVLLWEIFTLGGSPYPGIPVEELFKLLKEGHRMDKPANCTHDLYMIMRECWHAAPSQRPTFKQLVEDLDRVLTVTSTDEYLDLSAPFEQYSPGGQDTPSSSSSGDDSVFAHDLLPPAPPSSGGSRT
Sequence of Fes (P07332 whole entry, looked up): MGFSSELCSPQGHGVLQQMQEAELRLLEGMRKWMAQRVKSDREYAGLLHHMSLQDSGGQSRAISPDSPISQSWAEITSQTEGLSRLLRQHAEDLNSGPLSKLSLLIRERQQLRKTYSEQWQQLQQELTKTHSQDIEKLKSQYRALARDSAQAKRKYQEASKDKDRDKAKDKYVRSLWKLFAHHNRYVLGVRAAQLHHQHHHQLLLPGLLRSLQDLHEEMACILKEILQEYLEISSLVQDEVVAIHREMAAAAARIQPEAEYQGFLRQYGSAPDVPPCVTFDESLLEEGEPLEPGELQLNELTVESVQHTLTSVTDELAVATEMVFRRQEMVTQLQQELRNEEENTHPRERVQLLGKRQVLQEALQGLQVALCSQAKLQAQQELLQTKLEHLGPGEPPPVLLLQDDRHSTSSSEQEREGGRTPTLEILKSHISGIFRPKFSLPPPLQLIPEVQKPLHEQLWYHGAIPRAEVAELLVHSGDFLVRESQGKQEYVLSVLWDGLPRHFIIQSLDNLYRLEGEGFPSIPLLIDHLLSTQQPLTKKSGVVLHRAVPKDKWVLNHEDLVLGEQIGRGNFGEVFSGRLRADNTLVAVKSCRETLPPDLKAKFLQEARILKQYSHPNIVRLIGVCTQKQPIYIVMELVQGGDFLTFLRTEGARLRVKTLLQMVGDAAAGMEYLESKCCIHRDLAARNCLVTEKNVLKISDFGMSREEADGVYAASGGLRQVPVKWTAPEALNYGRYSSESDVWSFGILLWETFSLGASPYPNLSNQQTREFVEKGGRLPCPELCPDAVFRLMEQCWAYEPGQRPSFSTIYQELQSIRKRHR
Sequence of Hck (P08631 whole entry, looked up): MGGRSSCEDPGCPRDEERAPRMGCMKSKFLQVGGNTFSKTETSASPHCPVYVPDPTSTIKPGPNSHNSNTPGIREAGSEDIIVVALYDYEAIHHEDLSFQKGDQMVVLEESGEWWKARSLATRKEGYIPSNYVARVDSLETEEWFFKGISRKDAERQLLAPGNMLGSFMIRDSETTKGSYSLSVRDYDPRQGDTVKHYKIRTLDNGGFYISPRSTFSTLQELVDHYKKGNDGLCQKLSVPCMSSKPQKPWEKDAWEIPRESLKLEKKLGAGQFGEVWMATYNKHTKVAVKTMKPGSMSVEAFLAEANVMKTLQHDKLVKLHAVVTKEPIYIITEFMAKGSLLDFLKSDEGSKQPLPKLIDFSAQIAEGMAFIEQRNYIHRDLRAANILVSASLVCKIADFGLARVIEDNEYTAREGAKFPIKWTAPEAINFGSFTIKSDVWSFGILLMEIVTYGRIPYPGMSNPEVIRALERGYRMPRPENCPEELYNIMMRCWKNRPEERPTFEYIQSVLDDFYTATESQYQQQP
Sequence of EPHB2 (P29323 whole entry, looked up): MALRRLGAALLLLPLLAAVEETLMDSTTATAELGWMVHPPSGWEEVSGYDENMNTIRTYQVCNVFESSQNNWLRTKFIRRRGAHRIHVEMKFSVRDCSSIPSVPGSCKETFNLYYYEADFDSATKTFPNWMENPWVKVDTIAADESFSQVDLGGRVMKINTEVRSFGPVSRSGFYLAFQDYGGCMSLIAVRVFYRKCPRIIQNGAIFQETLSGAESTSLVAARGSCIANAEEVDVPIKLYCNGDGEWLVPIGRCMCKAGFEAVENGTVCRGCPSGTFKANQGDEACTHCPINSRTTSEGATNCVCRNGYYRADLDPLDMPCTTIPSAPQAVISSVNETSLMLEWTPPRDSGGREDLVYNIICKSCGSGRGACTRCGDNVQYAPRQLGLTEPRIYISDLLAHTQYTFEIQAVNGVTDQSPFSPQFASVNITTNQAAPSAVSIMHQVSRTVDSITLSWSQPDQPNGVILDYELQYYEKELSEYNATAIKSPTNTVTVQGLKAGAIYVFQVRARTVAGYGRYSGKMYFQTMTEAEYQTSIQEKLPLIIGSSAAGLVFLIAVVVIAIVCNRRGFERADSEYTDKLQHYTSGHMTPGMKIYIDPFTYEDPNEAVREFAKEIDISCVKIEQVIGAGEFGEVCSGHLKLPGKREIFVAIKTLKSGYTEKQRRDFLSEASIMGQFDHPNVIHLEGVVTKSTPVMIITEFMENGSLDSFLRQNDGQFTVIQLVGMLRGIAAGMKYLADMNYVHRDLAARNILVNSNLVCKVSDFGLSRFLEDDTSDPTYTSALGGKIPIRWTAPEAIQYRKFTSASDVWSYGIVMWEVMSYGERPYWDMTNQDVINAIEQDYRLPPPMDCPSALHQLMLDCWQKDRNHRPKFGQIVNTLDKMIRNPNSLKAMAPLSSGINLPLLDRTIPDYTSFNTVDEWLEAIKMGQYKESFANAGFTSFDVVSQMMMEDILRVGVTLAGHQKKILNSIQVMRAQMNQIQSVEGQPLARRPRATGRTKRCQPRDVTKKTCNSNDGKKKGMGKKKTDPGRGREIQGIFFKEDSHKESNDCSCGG
Sequence of MERTK (Q12866 whole entry, looked up): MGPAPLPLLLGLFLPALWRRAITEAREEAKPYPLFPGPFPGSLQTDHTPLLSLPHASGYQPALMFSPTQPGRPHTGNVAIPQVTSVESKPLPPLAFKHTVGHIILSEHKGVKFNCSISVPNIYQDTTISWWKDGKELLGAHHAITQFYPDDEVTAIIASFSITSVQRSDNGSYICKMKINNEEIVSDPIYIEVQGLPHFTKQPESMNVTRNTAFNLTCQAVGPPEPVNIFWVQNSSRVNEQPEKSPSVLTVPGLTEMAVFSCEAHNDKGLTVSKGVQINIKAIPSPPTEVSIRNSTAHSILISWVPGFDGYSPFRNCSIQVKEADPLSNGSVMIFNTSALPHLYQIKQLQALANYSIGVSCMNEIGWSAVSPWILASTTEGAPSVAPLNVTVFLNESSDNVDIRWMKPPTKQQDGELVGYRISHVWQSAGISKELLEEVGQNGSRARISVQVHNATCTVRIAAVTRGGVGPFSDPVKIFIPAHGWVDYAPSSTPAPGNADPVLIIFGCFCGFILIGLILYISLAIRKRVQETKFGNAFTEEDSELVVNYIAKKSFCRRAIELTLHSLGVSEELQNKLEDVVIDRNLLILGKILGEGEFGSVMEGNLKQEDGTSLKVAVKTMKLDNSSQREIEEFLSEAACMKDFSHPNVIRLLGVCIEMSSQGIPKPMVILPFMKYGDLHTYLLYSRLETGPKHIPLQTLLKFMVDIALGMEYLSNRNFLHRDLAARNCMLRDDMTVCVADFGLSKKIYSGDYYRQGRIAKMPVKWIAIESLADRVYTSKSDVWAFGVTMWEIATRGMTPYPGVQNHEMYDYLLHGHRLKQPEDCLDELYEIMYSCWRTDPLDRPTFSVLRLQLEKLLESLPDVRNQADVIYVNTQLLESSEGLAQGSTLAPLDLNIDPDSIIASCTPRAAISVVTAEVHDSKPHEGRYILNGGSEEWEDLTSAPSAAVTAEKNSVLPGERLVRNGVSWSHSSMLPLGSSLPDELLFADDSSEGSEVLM
Sequence of Fyn (P06241 whole entry, looked up): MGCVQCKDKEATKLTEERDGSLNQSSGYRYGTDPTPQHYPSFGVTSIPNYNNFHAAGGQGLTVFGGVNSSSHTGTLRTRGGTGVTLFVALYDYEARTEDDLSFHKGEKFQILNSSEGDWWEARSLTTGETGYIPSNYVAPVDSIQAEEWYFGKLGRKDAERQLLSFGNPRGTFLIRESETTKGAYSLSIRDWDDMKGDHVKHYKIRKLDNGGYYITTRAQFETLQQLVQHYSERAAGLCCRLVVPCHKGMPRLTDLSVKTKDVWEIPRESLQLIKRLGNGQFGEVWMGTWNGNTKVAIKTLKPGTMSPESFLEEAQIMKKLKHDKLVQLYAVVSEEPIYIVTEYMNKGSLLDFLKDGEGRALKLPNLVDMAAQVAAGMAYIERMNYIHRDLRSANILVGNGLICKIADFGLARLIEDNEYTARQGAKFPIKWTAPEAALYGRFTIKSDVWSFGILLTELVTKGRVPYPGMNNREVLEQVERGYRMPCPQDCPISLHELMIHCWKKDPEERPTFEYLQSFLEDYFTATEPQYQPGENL

Sequence | SH2 binding enrichment [14] | SH2 binding enrichment [15] | SH2 binding enrichment [16] | phosphorylation enrichment [1] | phosphorylation enrichment [2] | phosphorylation enrichment [3] | phosphorylation enrichment [4] | phosphorylation enrichment [5] | phosphorylation enrichment [6] | phosphorylation enrichment [7] | phosphorylation enrichment [8] | phosphorylation enrichment [9] | phosphorylation enrichment [10] | phosphorylation enrichment [11] | phosphorylation enrichment [12] | phosphorylation enrichment [13]
IEEGTYGVAFR [CDK11B_Y449_V452A_YF] | 0.612 | 0.51 | 0.374 | 1.32 | 0.888 | 2.24 | 0.465 | 0.915 | 4.45 | 1.11 | 7.47 | 6.06 | 0.859 | 1.6 | 0.982 | 5.45
FKTPIYPFLLP [PLD2_Y578_T577I_YF] | 1.14 | 0.892 | 0.825 | 1.11 | 0.564 | 0.563 | 1.06 | 0.782 | 0.497 | 0.883 | 0.456 | 0.523 | 0.91 | 1.57 | 0.747 | 0.559
ESKAGYRAPRS [CLDN7_Y195_V197A] | 1.04 | 0.74 | 0.542 | 0.536 | 0.35 | 0.415 | 0.425 | 0.483 | 0.339 | 0.519 | 0.415 | 0.404 | 0.593 | 0.34 | 0.402 | 0.349
KLNNEHLELNF [MME_Y497_Y497H_YF] | 0.783 | 0.542 | 0.419 | 0.88 | 0.514 | 0.466 | 0.462 | 0.662 | 0.423 | 0.921 | 0.453 | 0.464 | 0.813 | 0.405 | 0.805 | 0.454
VYSATYHPDHW [EFCAB12_Y544_P541S] | 0.97 | 0.788 | 0.634 | 1.02 | 1.06 | 1.13 | 1.33 | 1.18 | 4.14 | 1.24 | 6.37 | 5.4 | 1.05 | 10.3 | 2.06 | 5.17
SVKVFYKKCWF [EPHA7_Y202_S207F_YF] | 0.764 | 0.765 | 0.441 | 1.06 | 0.782 | 0.518 | 0.533 | 0.833 | 0.544 | 1.23 | 0.568 | 0.513 | 1.01 | 0.425 | 0.816 | 0.478
AHAGEYGADAL [HBA1_Y25_E28D] | 0.708 | 0.61 | 0.448 | 0.606 | 0.401 | 0.416 | 0.392 | 0.41 | 0.312 | 0.653 | 0.414 | 0.436 | 0.578 | 0.373 | 0.776 | 0.357
AVLSLYASGRT [ACTA1_Y145] | 0.971 | 0.731 | 0.555 | 1.02 | 0.622 | 0.571 | 0.523 | 0.699 | 0.503 | 1.2 | 0.489 | 0.702 | 1.04 | 0.413 | 0.813 | 0.461
RRAKGYPIYLY [ITGB2_Y125_D128Y] | 0.695 | 0.504 | 0.477 | 0.997 | 0.44 | 0.624 | 0.59 | 1.18 | 0.652 | 0.922 | 0.684 | 0.807 | 0.682 | 0.698 | 0.951 | 1.04
REHTVYWEPRK [MAGEA4_Y240_G241W] | 1.08 | 1.39 | 0.724 | 1.1 | 4.33 | 1.19 | 2.31 | 2.42 | 0.607 | 0.831 | 1.39 | 5.92 | 0.888 | 3.77 | 8.8 | 1.85
YGLQAYTEVKT [ALDH2_Y502] | 0.984 | 2.38 | 6.95 | 1.27 | 0.721 | 0.67 | 0.59 | 0.842 | 0.704 | 1.29 | 0.546 | 0.488 | 1.06 | 0.55 | 0.834 | 0.439
KVPAIYGVDTR [CPS1_Y162] | 0.841 | 0.707 | 0.466 | 0.61 | 0.334 | 0.383 | 0.398 | 0.469 | 0.422 | 0.665 | 0.642 | 0.701 | 0.615 | 0.54 | 0.525 | 0.782
DISEPYKVFRI [IRF8_Y107_YF] | 0.826 | 0.497 | 0.42 | 1.11 | 0.543 | 0.529 | 0.552 | 0.618 | 0.565 | 1.17 | 0.628 | 0.563 | 0.78 | 0.582 | 1 | 0.628
NESVDSRATFP [MET_Y1003_Y1003S] | 0.925 | 0.625 | 0.48 | 0.783 | 0.427 | 0.597 | 0.485 | 0.583 | 0.376 | 1.1 | 0.442 | 0.492 | 0.826 | 0.531 | 0.661 | 0.48
SPPILYSFFLD [FCRL6_Y239_YF] | 1.21 | 1.01 | 0.74 | 1.19 | 2.85 | 1.97 | 1.4 | 1.38 | 1.84 | 1.14 | 2.28 | 2.08 | 1.18 | 9.91 | 0.901 | 3.23
FASAEYQEALS [GALNS_Y461] | 0.734 | 0.598 | 0.569 | 0.949 | 0.454 | 0.466 | 0.482 | 0.618 | 0.369 | 0.858 | 0.454 | 0.481 | 0.759 | 0.348 | 0.505 | 0.485
NLSVHYDSSLK [ABCC8_Y1353_R1352H] | 0.793 | 0.547 | 0.509 | 0.952 | 0.579 | 0.82 | 0.522 | 0.603 | 0.437 | 0.922 | 0.424 | 0.453 | 0.612 | 0.339 | 0.548 | 0.342
GESSGYLRLAF [MEP1A_Y481_R476G] | 0.919 | 4.31 | 0.602 | 0.964 | 0.536 | 0.49 | 0.559 | 0.696 | 0.507 | 1.02 | 0.474 | 0.451 | 1.02 | 0.464 | 0.752 | 0.459
GVTLLYYGRYN [ADGRD1_Y85] | 1.28 | 1.24 | 1.05 | 1.5 | 0.808 | 0.92 | 0.611 | 0.826 | 0.577 | 1.31 | 2.77 | 2.13 | 1.85 | 0.728 | 0.852 | 3.17
ICGVSYDEFRF [CFTR_Y512_F508C_YF] | 0.838 | 0.664 | 0.847 | 1.51 | 0.663 | 0.642 | 0.553 | 0.967 | 1.17 | 1.5 | 0.764 | 0.842 | 1.21 | 0.571 | 1.03 | 1.49

Further lines, with some results ahead:

SH2 binding enrichment [14] | SH2 binding enrichment [15] | SH2 binding enrichment [16] | Sequence | phosphorylation enrichment [1] | phosphorylation enrichment [2] | phosphorylation enrichment [3] | phosphorylation enrichment [4] | phosphorylation enrichment [5] | phosphorylation enrichment [6] | phosphorylation enrichment [7] | phosphorylation enrichment [8] | phosphorylation enrichment [9] | phosphorylation enrichment [10] | phosphorylation enrichment [11] | phosphorylation enrichment [12] | phosphorylation enrichment [13]
0.752 | 0.654 | 0.363 | SVTCKYSPALN [TP53_Y126_T125K] | 0.638 | 0.431 | 0.457 | 0.429 | 0.515 | 0.392 | 0.795 | 0.344 | 0.431 | 0.629 | 0.386 | 0.458 | 0.454
0.73 | 0.486 | 0.545 | SSAETYSRMCL [NBEAL2_Y1835_R1839C] | 0.84 | 0.649 | 0.616 | 0.426 | 0.669 | 1.01 | 0.851 | 0.526 | 0.859 | 0.695 | 0.561 | 0.849 | 0.708
0.664 | 0.768 | 0.653 | TGSFTYEAVEL [MTMR14_Y462] | 1.77 | 6.56 | 3.89 | 0.466 | 0.711 | 13.1 | 1.24 | 2.21 | 1.78 | 1.31 | 1.87 | 0.801 | 2.45
0.93 | 0.482 | 0.381 | NLTVNYKKNLT [SQOR_Y259_I264T] | 0.883 | 0.429 | 0.629 | 0.376 | 0.615 | 0.503 | 1.24 | 0.608 | 0.539 | 1.05 | 0.547 | 1.03 | 0.502
0.907 | 0.665 | 0.747 | ELQDDYEDMME [SLC4A1_Y8] | 1.16 | 0.646 | 0.558 | 0.566 | 0.718 | 0.549 | 1.07 | 0.542 | 0.659 | 0.956 | 0.451 | 0.56 | 0.415
0.82 | 0.606 | 6.76 | LRKQDYQEILD [SLC35G2_Y403] | 0.995 | 0.632 | 0.379 | 0.629 | 0.708 | 0.434 | 1.17 | 0.529 | 0.47 | 0.999 | 0.364 | 0.629 | 0.468
1.09 | 1.39 | 0.857 | RYVYYYSYLLK [PTEN_Y178] | 1.74 | 2.55 | 1.64 | 4.48 | 3.85 | 1.09 | 1.82 | 1.15 | 1.99 | 2.76 | 5.99 | 1.83 | 2.48
0.875 | 0.88 | 0.562 | SLGSPYGQPPC [PDLIM4_Y137_R142C] | 0.659 | 0.453 | 0.491 | 0.465 | 0.588 | 0.37 | 0.835 | 0.458 | 0.576 | 0.568 | 0.39 | 0.817 | 0.373
1.11 | 0.633 | 0.53 | PLQKTYNFNVL [SLC4A1_Y553_YF] | 0.686 | 0.709 | 0.645 | 0.554 | 0.593 | 0.383 | 0.903 | 0.602 | 0.477 | 1.05 | 0.426 | 0.627 | 0.43
0.87 | 0.717 | 0.537 | KTAFSYTSSST [SIM1_Y356_P352T] | 0.665 | 0.329 | 0.482 | 0.426 | 0.475 | 0.399 | 0.721 | 0.41 | 0.353 | 0.497 | 0.44 | 0.456 | 0.432
1 | 1.17 | 1.05 | RHPEVYHHLGV [NVL_Y290] | 0.778 | 2.11 | 0.419 | 1.08 | 0.602 | 0.423 | 0.787 | 0.419 | 1.09 | 0.823 | 0.537 | 0.701 | 0.632
0.839 | 0.924 | 0.778 | SLIDMYSEVLD [OPA1_Y268] | 1.26 | 0.621 | 0.683 | 0.633 | 0.719 | 0.535 | 1.12 | 0.575 | 0.579 | 1.1 | 0.527 | 0.569 | 0.591
0.589 | 0.358 | 0.545 | TRNREYDDIDD [TTYH2_Y424_D423E] | 0.904 | 0.53 | 0.496 | 0.548 | 0.693 | 0.533 | 0.789 | 0.585 | 0.609 | 0.57 | 0.559 | 0.54 | 0.581
